In publication PMC5982138, “Disruption of the GDP-mannose synthesis pathway in Streptomyces coelicolor results in antibiotic hyper-susceptible phenotypes” (Microbiology, 2018):

Substrate: O=P(O)(O)O[C@H]1O[C@H](CO)[C@@H](O)[C@H](O)[C@@H]1O
Experiment: purified protein
Assay type: biochemical, Streptomyces coelicolor
Settings: GTP as co-substrate; cooperative (Hill fit)

B1: SCO4238 (Streptomyces coelicolor A3(2)) (protein)
chain: MTDPNAASRRPVQAVVLAGGQGSRLRPYTDDRPKPMVEIPGTGTPIIGHQLAWLAEEGVTDVVVSCGHLAEVLQKWLESADLPLSVTTVVETEPLGRGGGLRYAAAHLPHPDRSWYATNGDIWTRFSLRDMADFHAERDAVATLALARPRLPWGAVQTDGFGHITDFIEAPPSTFEINAGVYVFSPEFAAMLPERGDHERTTFPRLAREHRLAGFPIPQGSYWRAIDTAKDLTEAARELAALSGR
**Q.** B1 was tested. Which Km did it give?
**A.** Its Km is 180 ± 30 µM.
